± gives the standard deviation of the averaged measurements.
B1: library; a variant is named by its letters at N, in order (parent)
chain: GCUGUCACCGAGAAACUGUGAAGUAUAUCUUAAACCUGGGCACUUAAAAGAUAUAUGGAGUUAGUAGUGCAACCUGCUCGGUCUGAUGAGUCCNNNNNNGGACGAAACAGC

Assays:
cyclic di-GMP [1] = variants of: B1; assay: normalized RNA/DNA level without ligand (relative to sTRSVctl = 100) (log10 (% of sTRSVctl)); HEK293T; ligand: cyclic di-GMP (c-di-GMP-II aptamer); higher = less ribozyme self-cleavage, higher mRNA level; conditions: reporter: mCherry (pCS4076), ligand present: no
Method in brief: (§1)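 Library plasmids encoding reporter-linked ribozyme switches (mCherry, or eGFP for some folinic acid experiments) were transfected into HEK293T at 4 µg per 6-well well. Ligand, when used, was added 1 h before transfection. Total RNA was extracted with EDTA 72 h later, then reverse-transcribed, amplified, barcoded and sequenced. RNA level was RNA reads over DNA reads, divided by a spiked-in non-cleaving control (or the top 25 sequences), ×100, log10; only sequences with ≥100 DNA reads were kept.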

cyclic di-GMP [2] = variants of: B1; assay: normalized RNA/DNA level with ligand (relative to sTRSVctl = 100) (log10 (% of sTRSVctl)); HEK293T; ligand: cyclic di-GMP (c-di-GMP-II aptamer); ligand concentration (+) RNA-Seq: 1 mM; higher = less ribozyme self-cleavage, higher mRNA level; conditions: reporter: mCherry (pCS4076), ligand present: yes
Method in brief: as §1

Variant	normalized RNA/DNA level without ligand (log10) (cyclic di-GMP [1])	normalized RNA/DNA level with ligand (log10) (cyclic di-GMP [2])
UUUCUC	1.8 ± 0.024	1.92 ± 0.085
ACAAAC	1.55 ± 0.084	1.72 ± 0.091
CGCGAC	1.62 ± 0.041	1.8 ± 0.046
CUAUGC	1.75 ± 0.042	1.86 ± 0.12
UUGAGU	1.7248 ± 0.00016	1.83 ± 0.15
GCCUUA	1.657 ± 0.0086	1.82 ± 0.1
CGCUCC	1.77 ± 0.035	1.89 ± 0.084
ACCUGG	1.68 ± 0.081	1.88 ± 0.049
CCGCGG	1.73 ± 0.044	1.85 ± 0.056
UUUGGC	1.79 ± 0.033	1.9 ± 0.16
CGGCAG	1.792 ± 0.0062	1.86 ± 0.077
CAAUCG	1.77 ± 0.039	1.89 ± 0.16
GCAAGG	1.41 ± 0.14	1.57 ± 0.11
GACCAU	1.64 ± 0.022	1.79 ± 0.13
UACGGC	1.72 ± 0.033	1.84 ± 0.1
GUUUUC	1.69 ± 0.025	1.86 ± 0.09
CGUUUC	1.59 ± 0.025	1.78 ± 0.11
UAGGAU	1.58 ± 0.049	1.76 ± 0.078
CGUGUG	1.678 ± 0.0082	1.8 ± 0.092
CUACGC	1.74 ± 0.043	1.86 ± 0.084

Variant	normalized RNA/DNA level without ligand (log10) (cyclic di-GMP [1])	normalized RNA/DNA level with ligand (log10) (cyclic di-GMP [2])
CCUUGC	1.72 ± 0.059	1.83 ± 0.085
UUCACG	1.803 ± 0.018	1.9 ± 0.09
CGCCGU	1.77 ± 0.049	1.87 ± 0.063
CUGACU	1.52 ± 0.05	1.75 ± 0.11
CAGUCA	1.41 ± 0.1	1.52 ± 0.13
CUCACG	1.78 ± 0.037	1.86 ± 0.16
UGUAGA	1.67 ± 0.045	1.82 ± 0.12
CCGUGC	1.58 ± 0.036	1.76 ± 0.086
CCUCAC	1.698 ± 0.0058	1.85 ± 0.1
UCUUGU	1.732 ± 0.004	1.88 ± 0.1
CACCAA	1.4 ± 0.088	1.57 ± 0.1
CACAUC	1.682 ± 0.0036	1.74 ± 0.034
GCAUCC	1.65 ± 0.077	1.82 ± 0.052
UCGCGU	1.66 ± 0.083	1.84 ± 0.089
AGAGGU	1.57 ± 0.022	1.73 ± 0.077
GCGCAA	1.57 ± 0.044	1.72 ± 0.13
UGAAUA	1.677 ± 0.0075	1.82 ± 0.096
GAGCCG	1.823 ± 0.0091	1.9 ± 0.11
UCGUCA	1.644 ± 0.00093	1.82 ± 0.11
CUCCUU	1.61 ± 0.071	1.79 ± 0.051

Variant	normalized RNA/DNA level without ligand (log10) (cyclic di-GMP [1])	normalized RNA/DNA level with ligand (log10) (cyclic di-GMP [2])
GGCGCG	1.72 ± 0.034	1.83 ± 0.19
CUCGCG	1.857 ± 0.014	1.91 ± 0.039
ACGUUC	1.61 ± 0.045	1.8 ± 0.1
AGAGAC	1.56 ± 0.035	1.69 ± 0.088
GUUAUC	1.51 ± 0.045	1.74 ± 0.067
AAGUCA	1.63 ± 0.06	1.77 ± 0.14
UCUUCU	1.76 ± 0.066	1.84 ± 0.11
UAGUAG	1.7 ± 0.036	1.84 ± 0.1
UAGGUA	1.55 ± 0.018	1.72 ± 0.05
UGCUAA	1.695 ± 0.0079	1.87 ± 0.09
GCGAGU	1.53 ± 0.071	1.69 ± 0.11
UAUAUA	1.68 ± 0.076	1.86 ± 0.11
CCAGUG	1.27 ± 0.14	1.48 ± 0.06
GGUAUG	1.59 ± 0.093	1.74 ± 0.04
AGGGUC	1.71 ± 0.07	1.85 ± 0.18
AAAUUU	1.67 ± 0.067	1.82 ± 0.17
GGUACA	1.52 ± 0.034	1.73 ± 0.051
UACACA	1.7 ± 0.041	1.84 ± 0.083

Source: the supplement of paper PMC6757056
